# Source: the DeepSol protein solubility set
# Test: soluble on expression in E. coli; label from the status in PepcDB or PDB records
row,Sequence,soluble on expression in E. coli
1,MSLGLLDNVKKMVKKEATENPQQTSDDQKQVQAIHVTNGIDPKVIDAMNERMTKIENDLGKLSGEMEGQKKTLNDIKNELEGIKENVKMVVSLYELVSRDFNPFMDKTPEEIRGITDTLAEQVNNVKQLVEAAIKDLRELYGVPDIDQFIQMEEKKEGHHHHHH,soluble
2,KKIKVYIELDLGGPITVGFPTHISDGISLLGSTNIFDDISEAYFTPKDEEILKRDPDIIIYEPKRLTDYEKERFYSILRKRDLFQLLNKRLIFTKGDYLAHMGPSFITDVLIWLKSVL,not soluble
3,MNINLETAEQHAVQAYSDKKIQINSIIYESSLIVSKKEIITDFVIKDIQDINNSYIDLLLRSKPELIIIGHLQTGKTLPATLISQLSQKRIGIECMSIGAACRTYNVLLSEHRAVVAGFIFLEHHHHHH,not soluble
4,MGSDKIHHHHHHVSLSFDFSPDFNPLAARMRPASVEEYIGQSHLLGEGKPLRQALLAGKVHSMLLWGPPGTGKTTLAELVARYANAHVERISAVTSGVKEIRAAIEQAKNVAQSRGQRTLLFVDEVHRFNKSQQDAFLPFIEDGTVIFIGATTENPSFEVNNALLSRCRVYLIKRLEDDAIGQILAQANSDEARGLGKRGLLLKAELKSAIARLCDGDARKALNLLELMSDLLPDGGEYNLELLSEVAGHQAAGYDKNGDQYYDLISAVHKSIRGSAPDAALYWFCRILEGGGDPLYVARRLLAIASEDIGNADPNAMTVALNAWDCFHRVGPAEGERAIAQAVIYLASAPKSNAVYTAFKAARVLARETGNAPVPNHLRNAPTKLMSELGVGEGYRYAHDEDGAFAAGENYFPEVLQHSRIYQPTARGFEKRIRDKLAHLDALNQQSGRKRYE,not soluble
5,PETKTGKKILLAAPRGYCAGVDRAVETVERALEEYGAPIYVRKEIVHNRYVVDTLAEKGAIFVNEASEAPEGANMVFSAHGVSPMVHEEAAAKNIKAIDAACPLVTKVHKEVQRFDKQGFHILFIGHEGHEEVEGTMGHSVEKTHLVDGVAGIATLPEFLNDEPNLIWLSQTTLSVDETMEIVRELKVKFPQLQDPPSDDICYATQNRQVAVKAIAERCELMIVVGSRNSSNSVRLVEVAKQNGADNAYLVDYAREIDPAWFEGVETIGISSGASVPEILVQGVIERLAEFGYD,not soluble
6,SSLCEDMLLCNYRKCRIKLSGYAWVTACSHIFCDQHGSGEFSRSPAICPACNSTLSGKLDIVRTELSPSEEYKAMVLAGLRPEIVLDISSRALAFWTYQVHQERLYQEYNFSKAEGHLKQMEKIYTQQIQSKDVELTSMKGEVTSMKKVLEEYKKKFSDISEKLMERNRQYQKLQGLYDSLRLRNITIANHEGTLEPSMIAQSGVLGFPLGNNSKFPLDNTPVRNRGDGDGDFQFRPFFAGSPTAPEPSNSFFSFVSPSRELEQQQVSSRAFKVKRI,not soluble
7,MDEFEMIKRNTSEIISEEELREVLKKDEKSAIIGFEPSGKIHLGHYLQIKKMIDLQNAGFDIIILLADLFAYLNQKGELDEIRKIGDYNKKVFEAMGLKAKYVYGSSFMLDKDYTLNVYRLALKTTLKRARRSMELIAREDENPKVAEVIYPIMQVNPLHYEGVDVAVGGMEQRKIHMLARELLPKKVVCIHNPVLTGLDGEGKMSSSKGNFIAVDDSPEEIRAKIKKAYCPAGVVEGNPIMEIAKYFLEYPLTIKRPEKFGGDLTVNSYEELESLFKNKELHPMDLKNAVAEELIKILEPIRKRLLEHHHHHH,soluble
8,MSSNSPNSSNPAATDAPKKTSVEPGSEANNWHITEADEKGFKLTDMIKKLLKPVFSKAIMFDEKEIHVLLTRVFKYYTSPPNKKTAPSASASATTSMSPPKPAANALLELQAPINICGDTHGQYNDLLRIFNACGAATKTQYLFLGDYVDRGGHSLEVIMLLFSLKLAMPRKMHLLRGNHELKAINKNYGFHAELKKRFQREEVYESVYNHFNQVFSYMPLCAIVSKRILCMHGGISPHLKSLDDIRAIPLPLETAKTHPLACDLLWADPEKDAKGFEPNKIRAISNVFGKKEVDDLCKRLDIDLIVRAHQVVEYGYAFFADRRLITVFSASRYQIELCNYAAVVVVNKMLELSFVQLKPEDFEVRRDECEENAKDQTTSNVPH,not soluble
9,MIEFRNVSKVYPNGTKGLNNINLKIQKGEFVVMVGLSGAGKSTLLRSVNRLHEITEGEIMIEGESITAAKGKGLRRMRRDIGMIFQSFNLVKRSTVLKNVLAGRVGYHSTLRTTLGLFPKEDLELAFQSLKRVNILEKAYARADELSGGQQQRVSIARALAQEAKIILADEPVASLDPLTTKQVLEDLKKINEDFGITTIVNLHSIDLARQYATRIIGLHAGEIVFDGLVEEATDEKFAEIYGDVVQKSELLEVAVK,not soluble
10,MLSEEDVHTNSYAGRTVAVMEQPDLFSDDCDEINLGNEDTPPSKLRLHTTEEPKESSSPAVINSIEDHDQYVGNDNHYAQISPEPALSNFKVTMREFEKRGDGMNAYIVYKLETEVSGVVGYTKQHYETWRRFSDFLGLHGKIVEKYLAKGIVIPQPPEKSISALTKTKTNSDPAMSREVGIQRARQLERYICRLIQHPRMRNDCDVRDFLTIESDLPKAVQTAALSSFGVKKIFKNFQVVFSKMAFHMEEGDRWFEQVQSQVDELDEALRKLYTVTETLVASRRDMATSGEQLGKALSMLAACEESTSLSRALSSLTDVTENVSAVYGKQAEVDNSKFSESIYEYIMLISALKDVFGERVRAWQQWQDAQQTLARKRDQKTKIDLSAGGRNERSDQLKGEIEDTVQKMDQLEQHFIELSKAIREEVARFDADRKQDMKKMLVEYMESMIHTHTELLHLWEKFEPEANNIRV,not soluble
11,MGSDKIHHHHHHVLLEEFENTSAVIEPTDMAIRGGGEVCETMIFSFNGEIVDRVRQLPESREGGYLESINGRHPWYILERDGVRVAVMLAVIGAPMAVGHLEELKACGFENFIVLGSCGVLDKSLVADKIILPSSALRDEGTSYHYAPASDEISYDPALLLTMEKALDQAGIEHVRAKTWTTDAFYRETSAKVKRRLAAGAMVVDMEASAIMAWANFRQAKVYQFFYTADYVDYHKNEWDARREERTADSMTFFEVAMAIARKLESTSC,not soluble
12,GSGNRTRKRRMINASVWMPPMENEEKNRKNHQSITSSQHSLLEASYDGYIKRQRNELQHYSLYPNPQGYGNGNDFLGDFNHTNLQIPTEPEPESPIKLHTEAAGSYAITEPITRESVNIIDPRHNRTVLHWIASNSSAEKSEDLIVHEAKECIAAGADVNAMDCDENTPLMLAVLARRRRLVAYLMKAGADPTIYNKSERSALHQAAANRDFGMMVYMLNSTKLKGDIEELDRNGMTALMIVAHNEGRDQVASAKLLVEKGAKVDYDGAARKDSEKYKGRTALHYAAQVSNMPIVKYLVGEKGSNKDKQDEDGKTPIMLAAQEGRIEVVMYLIQQGASVEAVDATDHTARQLAQANNHHNIVDIFDRCRPERE,soluble
13,MPGTLSFPSDAFPAYPALEIDQPDGWVALAGVGLPLALAAEVPSGQFRPNVLVTVQRFGVGHTVADSRSAVNKSLKALPRFTQTLREDSIEMLGSPGMRVEGYFSDGKGGTMVQALRMCVVEAGPVFDVVQITGTCSGPQTEAFFGQIREIQDTLRLAG,not soluble
14,MSNHQVALQFEDGVTRFICIAQGETLSDAAYRQQINIPMDCREGECGTCRAFCESGNYDMPEDNYIEDALTPEEAQQGYVLACQCRPTSDAVFQIQASSEVCKTKIHHFEGTLARVENLSDSTITFDIQLDDGQPDIHFLAGQYVNVTLPGTTETRSYSFSSQPGNRLTGFVVRNVPQGKMSEYLSVQAKAGDKMSFTGPFGSFYLRDVKRPVLMLAGGTGIAPFLSMLQVLEQKGSEHPVRLVFGVTQDCDLVALEQLDALQQKLPWFEYRTVVAHAESQHERKGYVTGHIEYDWLNGGEVDVYLCGPVPMVEAVRSWLDTQGIQPANFLFEKFSAN,soluble
15,MSGNQMAMGSEQQQTVGSRTVSVEEVPAVLQLRATQDPPRSQEAMPTRHNVRWEENVIDNENMNKKKTKICCIFHPQNEDEEECNHHSDDDGSSSSGSSSSESENEKDLDFNERRQRRLERRHRKLEKKRSYSPNAYEIQPDYSEYRRKQQEKKDMGHHHHHHSH,soluble
